According to publication PMC8675452:

Target: biotinylated MPER peptide (MPERbiot) (HIV (strain not stated))
Assay: BLI

- koff: 0.00126 s⁻¹
Substance: trispecific anti-HIV antibody (SAR441236)
